This data set deals with the molecule itself. The data set is described as follows: SEC; analytical SEC, Agilent Bio SEC-3 HPLC column, TNT buffer (25 mM Tris pH 8.0, 150 mM NaCl, 1 mM TCEP), 25 °C; proteins diluted to a range of concentrations (given in Figure 3a) and incubated at least 1 h at room temperature; dimer against monomer.

B1: wild-type FICD, structured luminal region (residues 104-445) (enzyme, human, UniProt Q9BVA6 104-445, looked up)
chain: LEARAALNQALEMKRQGKREKAQKLFMHALKMDPDFVDALTEFGIFSEEDKDIIQADYLYTRALTISPYHEKALVNRDRTLPLVEEIDQRYFSIIDSKVKKVMSIPKGNSALRRVMEETYYHHIYHTVAIEGNTLTLSEIRHILETRYAVPGKSLEEQNEVIGMHAAMKYINTTLVSRIGSVTISDVLEIHRRVLGYVDPVEAGRFRTTQVLVGHHIPPHPQDVEKQMQEFVQWLNSEEAMNLHPVEFAALAHYKLVYIHPFIDGNGRTSRLLMNLILMQAGYPPITIRKEQRSDYYHVLEAANEGDVRPFIRFIAKCTETTLDTLLFATTEYSVALPEAQP
notes: human FICD (Fic domain-containing protein), structured luminal region, residues 104-445; purification as in Perera et al., 2019 and 2021; also called FICD^WT; WT; source: E. coli T7 Express lysY/Iq (NEB), purified (Ni-NTA, Ulp1 cleavage, anion exchange, gel filtration); not shown: His6, N-terminal, cleaved; SUMO, N-terminal, cleaved
Broadly, the stoichiometry N is the number of molecules, sites or subunits per partner or assembly. As for B1, the “stoichiometry N” value is 2.

B2: FICD^R371S, structured luminal region (residues 104-445) (enzyme, human, UniProt Q9BVA6 104-445, looked up)
chain: LEARAALNQALEMKRQGKREKAQKLFMHALKMDPDFVDALTEFGIFSEEDKDIIQADYLYTRALTISPYHEKALVNRDRTLPLVEEIDQRYFSIIDSKVKKVMSIPKGNSALRRVMEETYYHHIYHTVAIEGNTLTLSEIRHILETRYAVPGKSLEEQNEVIGMHAAMKYINTTLVSRIGSVTISDVLEIHRRVLGYVDPVEAGRFRTTQVLVGHHIPPHPQDVEKQMQEFVQWLNSEEAMNLHPVEFAALAHYKLVYIHPFIDGNGSTSRLLMNLILMQAGYPPITIRKEQRSDYYHVLEAANEGDVRPFIRFIAKCTETTLDTLLFATTEYSVALPEAQP
notes: human FICD, structured luminal region, residues 104-445, with the patient variant p.(Arg371Ser) (NM_007076.2:c.1113G>C); Rare human variant found in patients; also called Arg371Ser mutant FICD; p.(Arg371Ser); source: E. coli T7 Express lysY/Iq (NEB), purified (Ni-NTA, Ulp1 cleavage, anion exchange, gel filtration); not shown: His6, N-terminal, cleaved; SUMO, N-terminal, cleaved
In the case of B2, the “stoichiometry N” value came out at 2.

These data come from paper doi:10.1101/2022.05.14.22275020, “A homozygous p.(Arg371Ser) mutation in FICD de-regulates AMPylation of the human endoplasmic reticulum chaperone BiP causing infancy-onset diabetes and severe neurodevelopmental delay” (medRxiv, 2022).
